Results published in patent US20160024487.
Changes are numbered by the printed parent chain.

How the values were obtained:
[1] = target: T1, Lys(Dnp)-TNATLDPRIVGG-Lys(Abz)
T1 chain: KTNATLDPRIVGGK

[2] = target: T2, Lys(Dnp)-PDNIAAWYLRIVGG-Lys(Abz)
T2 chain: KPDNIAAWYLRIVGGK

[3] = target: T3, Lys(Dnp)-EDQEDQVDPRIVGG-Lys(Abz)
T3 chain: KEDQEDQVDPRIVGGK

[4] = target: T4, Lys(Dnp)-ATNATDIPRIVGG-Lys(Abz)
T4 chain: KATNATDIPRIVGGK

[5] = target: T5, Lys(Dnp)-DFLAEGGGPRIVGG-Lys(Abz)
T5 chain: KDFLAEGGGPRIVGGK

[6] = target: T6, Lys(Dnp)-RGDSVVYGLRIVGG-Lys(Abz)
T6 chain: KRGDSVVYGLRIVGGK

[7] = target: T7, Lys(Dnp)-ATNATNPPRIVGG-Lys(Abz)
T7 chain: KATNATNPPRIVGGK

[8] = target: T8, Lys(Dnp)-QISNDTVSPRIVGG-Lys(Abz)
T8 chain: KQISNDTVSPRIVGGK

[9] = target: T9, Lys(Dnp)-ATNATLPPRIVGG-Lys(Abz)
T9 chain: KATNATLPPRIVGGK

[10] = target: T10, Lys(Dnp)-DNEEGFFSARIVGG-Lys(Abz)
T10 chain: KDNEEGFFSARIVGGK

[11] = target: T11, Lys(Dnp)-STPSILPAPRIVGG-Lys(Abz)
T11 chain: KSTPSILPAPRIVGGK

[12] = target: T12, Lys(Dnp)-ATNATKPPRIVGG-Lys(Abz)
T12 chain: KATNATKPPRIVGGK

[13] = target: T13, Lys(Dnp)-NESTTKIKPRIVGG-Lys(Abz)
T13 chain: KNESTTKIKPRIVGGK

[14] = target: T14, Lys(Dnp)-ATNATDKPRIVGG-Lys(Abz)
T14 chain: KATNATDKPRIVGGK

[15] = target: T15, Lys(Dnp)-TVELQGVVPRIVGG-Lys(Abz)
T15 chain: KTVELQGVVPRIVGGK

[16] = target: T16, Lys(Dnp)-ATLDPRIVGG-Lys(Abz)
T16 chain: KATLDPRIVGGK

[17] = target: T17, Lys(Dnp)-ATNATDWPRIVGG-Lys(Abz)
T17 chain: KATNATDWPRIVGGK

[18] = target: T18, Lys(Dnp)-EDSDRAIEGRIVGG-Lys(Abz)
T18 chain: KEDSDRAIEGRIVGGK

[19] = target: T19, Lys(Dnp)-NRLAAALGIRIVGG-Lys(Abz)
T19 chain: KNRLAAALGIRIVGGK

[20] = target: T20, Lys(Dnp)-ATNATDSPRIVGG-Lys(Abz)
T20 chain: KATNATDSPRIVGGK

[21] = target: T21, Lys(Dnp)-ATNATENPRIVGG-Lys(Abz)
T21 chain: KATNATENPRIVGGK

[22] = target: T22, Lys(Dnp)-ASTAVVIAGRIVGG-Lys(Abz)
T22 chain: KASTAVVIAGRIVGGK

[23] = target: T23, Lys(Dnp)-DFLAEGGGVRIVGG-Lys(Abz)
T23 chain: KDFLAEGGGVRIVGGK

[24] = target: T24, Lys(Dnp)-SEYQTFFNPRIVGG-Lys(Abz)
T24 chain: KSEYQTFFNPRIVGGK

[25] = target: T25, Lys(Dnp)-HTHHAPLSPRIVGG-Lys(Abz)
T25 chain: KHTHHAPLSPRIVGGK

[26] = target: T26, Lys(Dnp)-ATNATDPPRIVGG-Lys(Abz)
T26 chain: KATNATDPPRIVGGK

[27] = target: T27, Lys(Dnp)-LSKNNAIEPRIVGG-Lys(Abz)
T27 chain: KLSKNNAIEPRIVGGK

[28] = target: T28, Lys(Dnp)-YDEDENQSPRIVGG-Lys(Abz)
T28 chain: KYDEDENQSPRIVGGK

[29] = target: T29, Lys(Dnp)-ATNATNDPRIVGG-Lys(Abz)
T29 chain: KATNATNDPRIVGGK

[30] = target: T30, Lys(Dnp)-NLAKPTLPIKIVGG-Lys(Abz)
T30 chain: KNLAKPTLPIKIVGGK

[31] = target: T31, Lys(Dnp)-DQVTVAMTPRIVGG-Lys(Abz)
T31 chain: KDQVTVAMTPRIVGGK

[32] = target: T32, Lys(Dnp)-ATNATQPPRIVGG-Lys(Abz)
T32 chain: KATNATQPPRIVGGK

[33] = target: T33, Lys(Dnp)-ATNATRQPRIVGG-Lys(Abz)
T33 chain: KATNATRQPRIVGGK

[34] = target: human α-thrombin (FIIa), P00734

B1: Human plasma purified Factor Xa (Molecular Innovations, Inc) (protein)
chain 1: ANSFLEEMKKGHLERECMEETCSYEEAREVFEDSDKTNEFWNKYKDGDQCETSPCQNQGKCKDGLGEYTCTCLEGFEGKNCELFTRKLCSLDNGDCDQFCHEEQNSVVCSCARGYTLADNGKACIPTGPYPCGKQTLERRKR
chain 2: IVGGQECKDGECPWQALLINEENEGFCGGTILSEFYILTAAHCLYQAKRFKVRVGDRNTEQEEGGEAVHEVEVVIKHNRFTKETYDFDIAVLRLKTPITFRMNVAPACLPERDWAESTLMTQKTGIVSGFGRTHEKGRQSTRLKMLEVPYVDRNSCKLSSSFIITQNMFCAGYDTKQEDACQGDSGGPHVTRFKDTYFVTGIVSWGEGCARKGKYGIYTKVTAFLKWIDRSMKTRGLPKAKSHAPEVITSSPLK
[1]
  FXa kcat/KM: 860 M⁻¹ s⁻¹
[2]
  FXa kcat/KM: 15 M⁻¹ s⁻¹
[3]
  FXa kcat/KM: 13 M⁻¹ s⁻¹
[4]
  FXa kcat/KM: 41 M⁻¹ s⁻¹
[5]
  FXa kcat/KM: 5.8 M⁻¹ s⁻¹
[6]
  FXa kcat/KM: 1.7 M⁻¹ s⁻¹
[7]
  FXa kcat/KM: 2.9 M⁻¹ s⁻¹
[8]
  FXa kcat/KM: 340 M⁻¹ s⁻¹
[9]
  FXa kcat/KM: 1.6 M⁻¹ s⁻¹
[10]
  FXa kcat/KM: 230 M⁻¹ s⁻¹
[11]
  FXa kcat/KM: 230 M⁻¹ s⁻¹
[12]
  FXa kcat/KM: 8.7 M⁻¹ s⁻¹
[13]
  FXa kcat/KM: 36 M⁻¹ s⁻¹
[14]
  FXa kcat/KM: 11 M⁻¹ s⁻¹
[15]
  FXa kcat/KM: 100 M⁻¹ s⁻¹
[16]
  FXa kcat/KM: 940 M⁻¹ s⁻¹
[17]
  FXa kcat/KM: 7.2 M⁻¹ s⁻¹
[18]
  FXa kcat/KM: 1900 M⁻¹ s⁻¹
[19]
  FXa kcat/KM: 350 M⁻¹ s⁻¹
[20]
  FXa kcat/KM: 4.4 M⁻¹ s⁻¹
[21]
  FXa kcat/KM: 3.3 M⁻¹ s⁻¹
[22]
  FXa kcat/KM: 2.1 M⁻¹ s⁻¹
[23]
  FXa kcat/KM: 3.4 M⁻¹ s⁻¹
[24]
  FXa kcat/KM: 140 M⁻¹ s⁻¹
[25]
  FXa kcat/KM: 100 M⁻¹ s⁻¹
[26]
  FXa kcat/KM: 1.6 M⁻¹ s⁻¹
[27]
  FXa kcat/KM: 1000 M⁻¹ s⁻¹
[28]
  FXa kcat/KM: 320 M⁻¹ s⁻¹
[29]
  FXa kcat/KM: 30 M⁻¹ s⁻¹
[30]
  FXa kcat/KM: 3 M⁻¹ s⁻¹
[31]
  FXa kcat/KM: 470 M⁻¹ s⁻¹
[32]
  FXa kcat/KM: 9.5 M⁻¹ s⁻¹
[33]
  FXa kcat/KM: 4500 M⁻¹ s⁻¹

B2: FX [191-194]>[NATLMPR]-HPC4 (protein)
chain: ANSFLEEMKKGHLERECMEETCSYEEAREVFEDSDKTNEFWNKYKDGDQCETSPCQNQGKCKDGLGEYTCTCLEGFEGKNCELFTRKLCSLDNGDCDQFCHEEQNSVVCSCARGYTLADNGKACIPTGPYPCGKQTLERRKRSVAQATSSSGEAPDSITWKPYDAADLDPTENPFDLLDFNQTQPERGDNNATLMPRIVGGQECKDGECPWQALLINEENEGFCGGTILSEFYILTAAHCLYQAKRFKVRVGDRNTEQEEGGEAVHEVEVVIKHNRFTKETYDFDIAVLRLKTPITFRMNVAPACLPERDWAESTLMTQKTGIVSGFGRTHEKGRQSTRLKMLEVPYVDRNSCKLSSSFIITQNMFCAGYDTKQEDACQGDSGGPHVTRFKDTYFVTGIVSWGEGCARKGKYGIYTKVTAFLKWIDRSMKTRGLPKAKSHAPEVITSSPLKDQVDPRLIDGK
[34]
  kcat/KM: No Activity

B3: FX [191-194]>[NATLRPR]-HPC4 (protein)
chain: B2 chain with M195R
[34]
  kcat/KM: No Activity

B4: FX [191-194]>[NATLEPR]-HPC4 (protein)
chain: B2 chain with M195E
[34]
  kcat/KM: No Activity

B5: FX [191-194]>[NATMMPR]-HPC4 (protein)
chain: B2 chain with L194M
[34]
  kcat/KM: No Activity

B6: FX [191-194]>[NATIKPR]-HPC4 (protein)
chain: B2 chain with L194I, M195K
[34]
  kcat/KM: No Activity

B7: FX [191-194]>[NATDTPR]-HPC4 (protein)
chain: B2 chain with L194D, M195T
[34]
  kcat/KM: No Activity

B8: FX [191-194]>[NATIRPR]-HPC4 (protein)
chain: B2 chain with L194I, M195R
[34]
  kcat/KM: No Activity
